Reference: patent EP0459978B1, “CLASS I MHC MODULATION OF SURFACE RECEPTOR ACTIVITY” (THE REGENTS OF THE UNIVERSITY OF CALIFORNIA, priority 1989, dated 1997)

Test: Peptide depletion (degradation or adsorption) during the experimental period, by HPLC and 125I-labeled peptide
Type: physicochemical
Details: HPLC and 125I-labeled peptide; concentrations above 0.1 )M

Question: For “dynorphin A: control peptide purchased from Peninsula Laboratories”, which “depletion (degradation or adsorption) during the experimental period” value is on record?
Answer: No significant depletion
